This note sets out measurements from paper PMC8573201.

Assay [1] addresses T1, human GIPR double mutant R190Q-E288G (human) (UniProt P48546).
T1 sequence: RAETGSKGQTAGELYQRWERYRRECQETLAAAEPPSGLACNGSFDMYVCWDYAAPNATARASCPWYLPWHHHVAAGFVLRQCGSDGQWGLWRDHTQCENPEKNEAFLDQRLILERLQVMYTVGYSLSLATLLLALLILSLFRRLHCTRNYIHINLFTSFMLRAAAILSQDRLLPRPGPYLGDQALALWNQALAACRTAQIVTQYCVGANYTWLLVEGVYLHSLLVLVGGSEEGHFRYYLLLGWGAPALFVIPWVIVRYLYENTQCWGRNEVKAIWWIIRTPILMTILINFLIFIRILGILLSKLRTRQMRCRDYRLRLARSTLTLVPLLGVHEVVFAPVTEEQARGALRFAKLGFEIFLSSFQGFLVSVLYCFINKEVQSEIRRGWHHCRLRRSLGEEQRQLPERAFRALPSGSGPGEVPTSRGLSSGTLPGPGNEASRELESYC

Assay [2] deals with T2, human GIPR variant E288G (human) (UniProt P48546).
T2 sequence: T1 sequence with Q169R

The target in assay [3] is T3, wild-type human GIP receptor (GIPR) (human) (UniProt P48546).
T3 sequence: T1 sequence with Q169R, G267E

Assay [4] concerns the target T4, human GIPR variant R190Q (human) (UniProt P48546).
T4 sequence: T1 sequence with G267E

Assay [5] deals with T1, human GIPR double mutant R190Q-E288G (human). This is another data set of the same source.
Assay [6] deals with T2, human GIPR variant E288G (human). This is another data set of the same source.
For assay [7], the target named is T3, wild-type human GIP receptor (GIPR) (human). This is another data set of the same source.
The target of assay [8] is T4, human GIPR variant R190Q (human). This is another data set of the same source.
The mark [9] stands for this setting: scale: negative logarithm of molar concentration.

Residue numbers refer to the chain shown, from its start.

Sequence of Rluc8-Arrestin-3-Sp1 (P32121 whole entry): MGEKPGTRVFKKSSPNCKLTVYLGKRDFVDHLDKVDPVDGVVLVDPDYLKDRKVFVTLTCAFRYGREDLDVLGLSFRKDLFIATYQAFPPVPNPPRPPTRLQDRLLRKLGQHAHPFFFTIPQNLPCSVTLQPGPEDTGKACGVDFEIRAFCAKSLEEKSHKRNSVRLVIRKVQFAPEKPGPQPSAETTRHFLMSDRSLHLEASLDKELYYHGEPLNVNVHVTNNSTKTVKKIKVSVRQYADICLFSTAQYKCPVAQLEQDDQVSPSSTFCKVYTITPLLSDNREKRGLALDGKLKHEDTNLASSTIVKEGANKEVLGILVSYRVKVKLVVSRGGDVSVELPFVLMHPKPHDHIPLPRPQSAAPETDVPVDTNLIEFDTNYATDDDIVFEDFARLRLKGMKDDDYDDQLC

Regarding “Rluc8-Arrestin-3-Sp1 (from UniProt P32121 1-409) (natural protein)”, the β-arrestin 2 recruitment in HEK293 cells (BRET, GRK2 co-expressed), EC50 of GIP(1-42) in assay [1] was found to be 11 nM; in assay [2], 0.23 nM; in assay [3], 0.88 nM; in assay [4] it was 0.76 nM. In addition, the β-arrestin 2 recruitment in HEK293 cells (BRET between Rluc8-Arrestin-3-Sp1 and mem-linker-citrine-SH3, GRK2 co-expressed) on stimulation with GIP(1-42), Emax in assay [5] was 12 % of WT; in assay [6] it was 8.6 % of WT; in assay [7], 98 % of WT; in assay [8], 9 % of WT. In addition, the β-arrestin 2 recruitment in HEK293 cells (BRET, GRK2 co-expressed), pEC50 of GIP(1-42) is 8 in assay [5] (setting [9]), 9.6 in assay [6] (setting [9]), 9.1 in assay [7] (setting [9]) and 9.1 in assay [8] (setting [9]).
